Test: yeast display, Sf9 membrane polyspecificity reagent, FACS + sequencing; frameworks hold sequencing errors
In short: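 Nanobodies came from a synthetic yeast display library in Saccharomyces cerevisiae BJ5465, induced with galactose for 36–48 hours and stained for 1 hour at 4 °C with 10% biotinylated, detergent-solubilized Sf9 membrane reagent. Cells were enriched on streptavidin microbeads and then FACS-sorted, with low and high (top ~1%) gates set on anti-HA fluorescence for expression and streptavidin fluorescence for reagent binding. Each polyreactivity label reflects the gate a clone came from. Genes were amplified by colony PCR, sequenced by MiSeq 2 × 250 and filtered by CDR length.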

Row | Sequence | polyreactivity (PSR sort gate)
1 | QDQRVESGGGLVQAGGSLRLSCAASGSIRGYAMGWYRQAPGKERELVASITWSGGSTYYADSVKGRFTISRDNSKNTVYLQMNSLKPEDPAVFYCAARPSPYASFFRPYDYWGQGTQVTVSS | low polyreactivity
2 | QDQVVESGGGLVQAGGSLRLSCAASGRIFFAYAMGLYRQAAGTERELVAAITSSGNTYYADSVKGRFTISRDNAKNTVFLQINSLKPEDTAVYYCATGYWELRYDYWGQGTQLTVSS | low polyreactivity
3 | QDQVVESGGGLVQAGGSLRLSCAASGRTFAIYAMGWYRQAPGKEREFVAAITWRSGSTYYADSVKGRFTISRDNAKNTVYLQMMSVKPEDTAVYFCAAYPYSYLQLMDYWGQGTQVTVSS | high polyreactivity
4 | QEQLQERAAWCRRAGSLRLSCAASGNISDYYFMGWYRQAPGKERELVAAIAPGSNTYYADSVKGRFTISRDNAKNTVYLQMNSLKPEDTAVCFCAANSTQYTWFDYWGQGTQVPVSS | low polyreactivity
5 | QEQLQESGGGLVQACGSLRLSCAASGYIFSHQYMGWYRQAPGKERELVASISPRATTNYADSVKGRFTISRDNAKNTVYLQMNSLKPEDTAVYYYAVYQILDRRLSYWGQGTQVTVSC | high polyreactivity
6 | QEQLQESGGGLVQAGDSPRLSCAESGYITARTGMGSYRQAPGKEREFVAGIASGTRTHYADSVKGRFTISRDNAKNAVYLQMTSLKPEDTAVYYCAATFGFFYYQYDYWGQGTQVTVSS | low polyreactivity
7 | QEQLQESGGGLVQAGGSLRLSCAASGNISTHQLYMGSYRQAPGKEREFVAAINFGASTYYADSVKGRNTISRDNAKYTVYLQMNSLKPEDTAVYYCNADWYYYYEVDDYWGQGTQVTVSS | low polyreactivity
8 | QEQLQESGGGLVQAGGSLRLSCAASGSIYDDTYMARYRQAPGKERELVATIDSGSTTNYADSVKGRITISRDNAKNTVYLQMNSLKPEDSAVYYCAAADSHIDYFDYWGQGTQVTVSS | low polyreactivity
9 | QEQLQESGGGLVQAGGSLRLSCAASGYISSWYPMGWYRQAPGKEREFVATIAPGATTYYADSVKGRFTISRDYAKNTVYLQMNSLTPEDTAVYYCAAGPENNDFYSYWGQGTQVTVSS | low polyreactivity
10 | QEQLQESGGGLVQAGGSQSLSCAASGIIFDWFFMGWYRQAPGREREFVAAITYGATTNYADSVKGRFTISRDNGKITVYLQMNSLKPEDCAVYYCAAASPLYWVDDFESGWRYYYWGQGTQVTVSS | low polyreactivity
11 | QEQLQESGSGLVQAGGSLRLSCAASGNIFQDWVMAWYRQAPGKERELVAAISPGAITYYADSVKGRFTISRDNAKNTVYLQTNSLKPEDTAVYYCAAYYIVEYLHGYWGQGTRVTVSS | low polyreactivity
12 | QEQLQESGSGLVQAGGSLRLSCAASGNIFQDWVMGWYRKAPGQERELVAAISPGAITYYADSVKGRFTISRDNAKNSVYLQTKSLKPEDTAVYYCGAYYIVEYLHGYWGQGTRVTVSS | low polyreactivity
13 | QEQLQESRGGLVQAGGSLRMTCAASGYNYLAHTIGWYRQAPGKELEFVASIALGSSTYYTDSVKGSFTISRDNAKTTVYLQKNSQKPEDTAVYYCAARVGASYAHDYWGQGTQVTVSS | low polyreactivity
14 | QEQLVESGGGLVQAGGSLRLSCAASGFIFAPYAMGWYSQAPGKDRDLVAAISSSGGSTYYADSVKGRFTISRDNAKNTVYLQMNSLKPEDTAVFYCAARGNFGANPGRKHGFDYWGQGTQVTVSS | low polyreactivity
15 | QEQLVQSAGGLVQAGGSLPLSCAASGSIIISNAMGWYRQAPGKERELVAAISRSGARTYYADSVKGRFTISRDNAKNTVYLQMNSLKPEDTAVYSCAVDGYSPYKYDYWGQGTLVTVSS | high polyreactivity
16 | QFHLVESGGGLVQAGGSLRLSCAASGSTFWFNVMGWYRQAPGKEREFVAAISSIGGSTYYADSVKGRFTISRDNAKNTVYLQMNSMKPEDTAVYYCAVEVVRVYRYDYWGQGTQVTVTS | low polyreactivity
17 | QFHLVESGRDFVQAAGSLLLSCAASASIFRYYTMGWYRQAPGKETELVATITDRGTSTYDADSVKGRFTLSRESV | high polyreactivity
18 | QFQHVESGGGLDQARGRLRLSCAASGYTFAKYTMGSYRQAPGKERELVAAISRGGSTTYADSVKGRFTISRDNAKNTVYLQMNSLKPEDTAVYDCAASGTKREDGYSLGYPRAGDYWGQGTQVTVSS | low polyreactivity
19 | QFQHVESGGGLVQARGSRRLSCAASGRTLYRNAMGWYRPARGKERELVAAITSGGHTKYADSVKGRFTISRDNAKNTVYLQMNSLKPVDTAVYYCNARYIRYSVGFLYTRYDYCGQGTQVTVSS | high polyreactivity
20 | QFQIVESGGGLVQAGGSLRLSCAASGSTFRTNAMGWYRQAPGKERELVARIRYSVGSTYYADSVKGRFTISRDNAKNTVYLQMNSLKPEDTAVYYCAAENQRVGTFREHDSWGQGTQVTVSS | low polyreactivity
21 | QFQLEESGGGLVQAGGSLRLSCDASGIIINYYAMGWYRQAPGKERELVAAIRISDTTYYADSVKGRFTISRDNAKNTVYLQMNSLKPEDTAVYYCNTLYYYYYGEVYVRDYDYWGQGTHVTVSS | low polyreactivity
22 | QFQLLESGGGLVHAGGSLLLSCAASGSTFVRYAMGWYRQAPAKERELVASISSSGSTYYADSVKGRFTISRDNAKNSDYLQMNSLKPEDTSVYYCAIQYGGRYGYWGQGTQVTVSS | low polyreactivity

Row | Sequence | polyreactivity (PSR sort gate)
23 | QFQLLESGGGLVQAGGSLRLSCAASGSIFRSNTMGWSRQAPGKAREFVAAISRRGSRTYADSVKGRFTISRDNAKNTVYLQMNSRKPEDTAVYYCAAERGYQAHPGQGDYWGQGTQVTVSA | high polyreactivity
24 | QFQLLESGGGVVHAAGSLRLSCAASGLIFPIYAMGWYRQAPGKERELVAVISSSGGSTNYADSVKGRFTISRDNAKNTVYLQMNSLKPEDTAVYYCAARYLQGRYDYWGQGTQVTVSS | high polyreactivity
25 | QFQLVDSGGGLVQAGGSLRLSCAASGLIFFYYAMGWYRQAPGKERELVAAIRTNYADSVKGRFTISRDNAKNTVYLQMNSLKPEDTAVYYCAAESSQTPTSAFDYWGQGTQVTVSS | low polyreactivity
26 | QFQLVDSGGGLVQAGGSLRLSCAPSGRIFQIYAMGWYRQAPGKERELVAAISGSTSYADSVKGRFTISRDNAKNTVYLQMISLKPEDTAVYYCAARALLPYGEYWGQGSQVTVSS | low polyreactivity
27 | QFQLVESCRGLVQAGGSLRLSCAASGFTFRANGMGWYRQAPGKERELVATITSGGTTNYADSVKGRFTISRDNAKNTVYLQMNSLKREDTAVYYCAKRFGPAYFRLYDYWGQGTQVTVSS | low polyreactivity
28 | QFQLVESGGCLVQAGGSLRLSCAASGFTFGYNAMGWYRQAPGKERELVAVITQSGGRTYYADSVKGRFTISRDNAKYTVYVQMNSLKPEDTAVYYCADRYRLPPYYYWGQGSQVTVSS | high polyreactivity
29 | QFQLVESGGGFVQAGGSLRLSCAASGRIFKTYMGWYRQAPGKESELVAGITRGGGSTYYADSVKGRFTISRDNAKNTVYLQMNSLKPEDTAVYYCAADAWSSYLDRPFDYWGQGTQVTVSS | high polyreactivity
30 | QFQLVESGGGFVQAGGSLRLSCAASGSIFLYNDMGWYRQAPGKERELVPAITSDGSTNYADSVKGRFTISRDNAKNTFYLQMNSLKPEDTAVYYCAADALWFYLNWYYGGTAYGYWGQGTQVTVSS | low polyreactivity
31 | QFQLVESGGGIVQAGGSHRVICAASASTFARNAMGWYRQATGKESEFVATISSSGGRTYYADSVKGRFTISRDNAKNTVYLQMNSLKPEDTAVYYCAADYHIVWYEEYSWGQGTQVTVSS | high polyreactivity
32 | QFQLVESGGGLDQAGGSLRLSCAASGSTSRKYTMGWYRQAPGTDRELVATISWSGGSTNYADSVKGRFTISRDNAKNTVYLQMNSLKPEDTAVYYCNAYVSPRYRGSRYYYWGQGTQVTVSS | high polyreactivity
33 | QFQLVESGGGLFQAGGSLRLSCAAYGRISLRNGMGWYRQAPGKERELVAAISRGGSTYYADSVKGRFTISRDNAKNTVYLQMNSLKPEDTAVYYCNADIRPIYGDDDYWGQSTQVTVSS | low polyreactivity
34 | QFQLVESGGGLVQAGGSHRLSCAASGFIFYYYAMGSYRQAPGKERELVAVLTESGSSTYYADSVKGRFTFSRDNAKNTVYLQMNSLKPVDTAVYYCNADFWPYTGKYDYWGQGTQVTVSS | low polyreactivity
35 | QFQLVESGGGLVQAGGSLLLSCAASGTFGVYAMGWYRQAPGKERELVAVITDSGGTNYADSVKGRFTISRDNAKNTVFLQMNSLKPEDTAVYYCNTDAGDYYGENYWGQGTQVTVSS | low polyreactivity
36 | QFQLVESGGGLVQAGGSLRISCAASGITLRRNAMGWYRQAPGKEREWVAAISWSGGRTYYADSVKGRFTISRDNAKNTVYLQMNSLKPEDTAVYYCAARGYPLTAFDYWGQGTQVTVSS | high polyreactivity
37 | QFQLVESGGGLVQAGGSLRISCAASGRIFYRYAMGWYRPAPGKERELVASIRFSVGSTYYADSVKGRFTISRDNAKNTVYLQMNSLKPEDTAVYYCAADYTKYYRRYYYWGQGTQVTVSS | high polyreactivity
38 | QFQLVESGGGLVQAGGSLRLSCAASAGYALGGYRQAPGKERELVAVINYSGGSTYYADSVKGRFTISRDNAKNTVYLQMNSLKPEDTAVYYCAAVYRRRYYWGQGTQVTVSS | high polyreactivity
39 | QFQLVESGGGLVQAGGSLRLSCAASGFIFFNYAMGWYRQAPGKERELVASINWSTGSTYADSVKGRFTISRDNAKNTVYLQMNSLKPEDSAVYYCNTDHRRVAIPGGYWGQGTQVTVSS | low polyreactivity
40 | QFQLVESGGGLVQAGGSLRLSCAASGFTFAYYAMGWYRQAPGKERELVAAITYSGGSTYYADSVKGRFTISRDNAKNTVYLQMNSLKPEDTAVYDCAAYPSRRRRGDEDDYWGQGTQVTVSS | high polyreactivity
41 | QFQLVESGGGLVQAGGSLRLSCAASGFTFEANAMGWYRKAPGKERELVASITRSDGSTHYADSVKGRFTISRDNAKNTVYLLMNRLKPEDTAVYYCAAVPESLTPKKGYGYWGKGTQVTVSS | low polyreactivity
42 | QFQLVESGGGLVQAGGSLRLSCAASGFTFRKYAMGWYRQAPGKERELVAAIRSTGRSNYADSVKGRFTISRDNAKNTVYFQMNSLKPVDTAVYYFNVDLTYYYYEVDYWGQGTQVTVSS | high polyreactivity
43 | QFQLVESGGGLVQAGGSLRLSCAASGFTFSHNTMGWYIQSPGKEREFVARISGRGVSTSYADSVKGRFTISRDNAKNTVYLQMNCLKPEDTAVYYCNRRVAYLSGYSYDYWGQGTQVTVSS | high polyreactivity

Reference: the nanobody polyreactivity screen of Harvey et al. (2022)
